These are literature values, as cited in article PMC10301793 (Marine Drugs, 2023).

Where no end group is shown, it is not given here.

The target of the data set is α6/α3β4 nAChR (Rattus norvegicus, UniProt P04757+P12392+P43143). The conditions noted are these: cited from earlier work.

In the case of “[D1G,∆Q14]LvIC: LvIC analogue (GCCANPVCNGKHC-NH2; ends and bridges not checked)”, the IC50 was 19 nM.

A word on the IC50: it is the concentration that gives 50% inhibition.
